The nanobody polyreactivity screen of Harvey et al. (2022)

Assay: yeast display, Sf9 membrane polyspecificity reagent, FACS + sequencing; frameworks hold sequencing errors
Procedure, shortened: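 Synthetic nanobody libraries on Saccharomyces cerevisiae BJ5465 were galactose-induced for 36–48 hours, stained 1 hour at 4 °C with 10% biotinylated, detergent-solubilized Sf9 membrane reagent and enriched on streptavidin microbeads. FACS then separated cells into low and high (top ~1%) gates by anti-HA (expression) and streptavidin (reagent binding) fluorescence. Genes were colony-PCR amplified, MiSeq 2 × 250 sequenced and CDR-length filtered. A clone's polyreactivity label is that of its gate of origin.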

| Sequence | polyreactivity (PSR sort gate) |
| --- | --- |
| QVQLVESGGGLVQAGGSLRLSCAASGSIFVKNAMGWYIHAPGKERELVATISRRGGSTYYADSVKGRFTISRDIAKNTVYLQMNSMKPEDTAVYYCAADRSNRPYYRQGYDYWGQGTQVTVSS | high polyreactivity |
| QDQLVESGGGLVQAGGSLRLSCAASGRTFTHYALGWYRQAPGKERELVAAISWSGGITYYADSVKGRFTISRDYAKNTVYLQMNSLKPEDTAVYYCAAEHYFSGYYYWGQGTQVTVSS | high polyreactivity |
| QVQLVESGGGLVQAGGSLRLSCAASGSTFYTNAMGWDRPAPGKEREVVAAISWSGSSTYADSVKGRFTISRDNAKNTVYLQMNSLKPEDTAVYYCAADWFKLRTDYYWGQGTQVTVSS | low polyreactivity |
| QVQLVESGGGLVQAGGSLRLSCAASGLTFGKYAMGWYRQAPGKERELVAAISRRGGSTYYADSVKGRFTISRDNANNTVYLQMNSLKPEDTAVYFCNTDTKHTGLDYWGQGTQVTVSS | high polyreactivity |
| QDQLVESGGGLVQAGGSLRLSCAASGFTFYPYTRGWYRQAPGKERELVAAISKSGGSTYYADSVKGRFTISRDNAKNTVYLQMNSLKPEDSAVYYCAAQRYSYYTPDDDYWGQGTQVTVSS | high polyreactivity |
| QVQLVESGGGLVQAGGSLRLSCAASGSTFAYNTMGWYRQAPGKERELVAAISQRGGSTYADTVKGRFTISRDNAKNTVYLQMNSLKPEENAVYYWAADGYTYKFDYWGQGTQVTVSS | low polyreactivity |
| QVQLVESGGGLVQAGGSLRLSCAASGSIFLTYTMGWYRQATGKERELVAAITDSDGSTSYADSVKGRFTISRDNAKNTVYLQMNSLKPEDTAVYYCAVEGYWYAGWYAMDYWGQGTQVTVSS | low polyreactivity |
| QVQLVESGGGLVQAGGSLRLSCAASGITFIDYAMGGYRQAPGKVRELVAAITVRGSTYYADSVKGRFTISRDNAKNTVYLQMNSLKPEDTAVYYCAADTYVAADSPVTGERDSFDYWGQGTQVTVSS | low polyreactivity |
| QVQLVESGGGLVQAGGSLRLSCAASGRTFKYYAMGWYRQAPGKERELVAAITYRDRTYYADSVKGRFTISRDNAKNTVYLQMNSLKPEDTAVYYCAAQHYGSDGRGFDYWGQGTQVTVSS | low polyreactivity |
| QVQLVDSGGGLVQAGGSLRLSCAASGFIFIRNARGWYRQAPGKESQLVAAIRYRGGNTYYADSVKGRFTISRDNAKNTVYLQMNSLKPEDTAVYYCNAAGSYYTRSDSGYWGQGTQVTVSS | high polyreactivity |
| QVQLVESGGGLVQAGGSLRLSCAASGSIFYNNAMGWYRQAPGKERELVAAITIGGSTNYADSVKGRFTISRDNAKNTVYLQMNSLKPEDTAVYYCAAGKPGAYRYGSIVRFDHWGQGTQVTVSS | low polyreactivity |
| QVQLVESGGGLVQAGGSLRLSCAASGRIFLRNAMGWYRQAPGKERELVATITSRGGSTYYADSVKGRFTISRDNAKNTVYLQMNSLKQEDTAVYYCAADPRRYRGFGYVYGGFYYWGQGTQVTVSS | low polyreactivity |
| QVQLVESGGGLVQAGGSLRLSCAASGRIFAYYAMGWYRQAPGKERELVAAISSGGTTNYADSVKGRFTISRDNAKNTVYLQMNSLKPEDTAVYYCNADGWRRSRQYYYWGQGTQVTVSS | low polyreactivity |
| QVQLVESGGGVVQAGGSLRLSCAASGSTFYPYAMGWYRPAPVKERELVASISSRGGTTYYADSEKGRFTISRDNAKNTVYLQRNSLKPEDTAVYYCAATYKHLNPLGVFSGGYYYWGQGTQVTVSS | high polyreactivity |
| QVQLVESGAGLVQARGSLRLSCAASGFTISYYAMGWYRQAPVKERELVAAITSGGSTYYADYVKGRFTISRDNAKNTVYVQMNSLKPEDTAVYYCIADGWYYPTDDYWGQGSQVTVSS | low polyreactivity |
| QVQLVESGGGLVQAGGSLRLSCAASGIILAYYAMRWYRQAPGKERELVASINRSGGSTYYADSVKGRFTISRDNAKNTVYFQMNSMKPEDTAVYYCDATTRGVGQWWYRYYYWGQGTQVTVSS | high polyreactivity |
| QVQLVESGGGLVQAGGSLRLSCAASGSTFCSYVMGWYRQAPGKERELVAAISSIGGSTYYADSVKGRFTISRDNAKNTVYLQMNSLKPEDTAVYYCAAEPPGSPYEGGYWGQGTQVTVSS | low polyreactivity |
| QVQLVESGGGLVQAGGSLRLSCAASGSTFYYYAMGWYRQAPGKERELVAAIDWSGESTYYADSVKGRFTISRDKAKKTVYLQMHSLKPEDTAVYYCAADLGYPWGYVLFYKQSISYYYWGQGTQVTVSS | low polyreactivity |
| QVQLVESGGGLVQAGGSLRLSCAASGLIFKYKAMGWYRQAPGKERELVAAISTSGGSTYYADSVKGRFTISRDNAKNTVYLQMNSLKPEDTAVYYCNAVAGRPFRYYYWGQGTQVTVSS | high polyreactivity |
| QVQLVESGGGLVQAGGSLRLSCAASGSIFSHNAMGGYRQAPGKERELVASITGSGGSTYYAASVKGRFTISRDNAKNTVYLQMNSLKPEDTAVYYCAATYYPDVRGMDYWGQGTQVTVSS | low polyreactivity |

| Sequence | polyreactivity (PSR sort gate) |
| --- | --- |
| QVQLVESGGGLVQAGGSLRLSCAASGIIFSPYAMGRYRQAPGKERELVAAITYSGDTTYYADSVKGRFTISRDNAKNTVYLQMNSLKPEDTAVYYCAVEDAGQGGDYWGQGTQVTVSS | low polyreactivity |
| QVQLVESGGGLLQAGGSLRLISAASGGIFIRYAMGWYRQAPGKERALVAAITQSGAGTNYADSVKGRFTISRDNAKNTVYLQKYSLKPEDTAVYYCAKEALLPIRRLTHARTRYNFWGQGTQVTVSS | low polyreactivity |
| QVQLVESGGRLVQAGGSLRLSWAASGITFFVNAMGWYRPAPGKERELVAVISRGDSTNYADSVKGRFTISRDNAKNTVYLLMNSLKPEDTAVYYCAADGSRAGLEGNDYWGQGTQVSVSS | low polyreactivity |
| QVQLVESGGGLLQSGGSLRLSCAASGFIFRSYAMGWYRQAPGKEREFVASISSRGGTTYYADSVKGRFTISRDNAKKTVYLQMNRLKPEDTAVYYCAADYFRWAGWGYEYWGQGSQVTVSS | high polyreactivity |
| QVQLVESGGGLVQAGGSLRLSCAASGRTFFANAMGWYRQAPGKERELVAAISGSGDRTYYADSVKGRFTISRDNAKNTVYLQMNSLKPEDTAVYYCAAAGWSARGYNYWGQGTQVTVSS | high polyreactivity |
| QVQLVESGGGLVQAGGSLRLSCAASGYIFKPNTMGWYRQAPGKERELVAAITRGGRTKYADSVKGRFTISRDNAKNTVYLQMNSLKPEATAVYYCNKVRTVTTYEYWGQGTQVTVSS | high polyreactivity |
| QVQLVESGGGLVQAGGSLRLSCAASGRTFRGNAMGWYRQAPGKERELVAAIRYRGGSTYYADSVKGRFTISRDNAKNTVYLQMNSLKPEDTAVYYCARRYTVHTQHYDYWGQGTQVTVSS | high polyreactivity |
| QVQLVESGGGLVQAGGSLRLSCAASGFTFYRYAMGCYRQAPGKERELVAAITSSGGNTYYADSVKGRFTISRDNGKNTVYLQMNSLKPEDTAVYYCAKYTRIRFEYEYWGLGTQVTVSS | high polyreactivity |
| QVQLVEAGGGLVQAGGTLRLSCDPSGLIFGLYAMGWYRHAPGKERELVAAISESGGGITYYADSVKGRFTISRDNAKNTVYLQMYSLKPEDTAVYYCNADRYVWAGFDFSTYDYWGQGTLVTVSS | low polyreactivity |
| QVQLVESGGGLVQAGGSLRLSCAASGRTFPAYAMGWYRQAPGKERELVAAISRGGSTYYADSVKGRFTISRDNAKNTVYLQMNSLKPEDTAVYYCAARYSYYRQGDSWYNYNYWGQGTQVTVSS | high polyreactivity |
| QVQLVESGGGLVQEGGSLRLSCAASGSTFNAYAMGWYRQAPGKERELVATINDDGGTTYYADSVKGRFTISRDNAKNTVYLQMNSLKPEDTAVYYCAASGFDTSYETAPSDSWGYDYWGQGTQVTVSS | low polyreactivity |
| QVQLVESGGGLVQAGGSLRLTCAASGFTFWWYTMGWYRQATGKERELVATITSGGRTNYADSVKGRFTISRDNAKNTVYLQMNSLKPEDTAVYYCNRVAYYSRYDTDDYWGQGTQVTVSS | high polyreactivity |
| QVQLVESGGGLVQAGGSLRLSCAASGSTFGQYVMGWYRQAPGKERELVAAITYSGGSTYYADSVKGRFTISRDNAKNTVYLQMNSLKPEDTAVYYCAARGRRDGYSRVPRGYWGQGTQVTVSS | high polyreactivity |
| QVQLVESGGGLVQAGGSLRLSCAASGSIFSYKAMGWYRQAPGKERELVAAISWSGGRTYYADSVKGRFTISRDNAKNTVYLQMNSLKPEDTAVYYCNAQYRLYSEFNYWGQGTQVTVSS | high polyreactivity |
| QVQLVESGGGLVQAGGSLRLSCAASGRIFGWYAMGWYRQAPGKEWELVAAITSGSRTSYADSVKGRFTISRDNAKNTDYLQMNSLNPEDTAVYYCARRSYGIYYRSADDSWGQGTQVTGSS | high polyreactivity |
| QVQLVESGGGLVQAGGSLRLSCAASGSTFQPNAMGWYRQAPGKERELVAAISKSDGRTYYADSVKGRFTISRDNAKNTVYLQMNSLQPEDTAVYNCAADAYWEPKVGFSLFDYWGQGTQVTVSS | low polyreactivity |
| QVQLVESGGGLVQAGGSLRLSCAASGSIFVTNAMGWYRQAPGKERELVAAISWRGGSTYYADSVKGRFTISRDNAKNTVYLQMNSLKPEDTAVYYCNTYHPYWGSGFDYWGQGTQVTVSS | low polyreactivity |
| QVQLVESGGGLVQAGGSLRLSCAASGFTFGNNAMGWYRQAPGKERELVAAISKRGSSTYYADSVKGRFTISRDNAKNTVYLQMNSLKPEDTAVYYCAAPRSRSRTSRFDYWGQGTQVTVSS | high polyreactivity |
| QVQLVESGGGLVQAGGSLRLSCAASGRILSANAMGWYRQAPGTERELVAAITYSGDNTYYADSVKGRFTISRDNAKNTVYLQMNSLKPEDTAVYYCAREFQVDGGEEDYWGQGSQVTVSS | low polyreactivity |
| QVQLVESGGGLVQAGGSLRLSCAASGGIFWYYTMGWYRQAPGKERELVATLSSGGRTYYADSVKGRFTMSRDNAKNTVYLQMNSLKPEDTAVYYCAAVGWYHDYYWGQGTQVTVSS | high polyreactivity |
